Patent US20100143349A1 (Pfizer, published 2010)
Changes are numbered by the printed parent chain. Values joined by “and” are separate entries in the source; they are usually repeats but may differ in a detail not shown here. Equal entries are not always repeated.

B1: parental XT-M4 scFv (VH 2.0, VL 2.11), VL-VH format (scFv)
scFv: DIQMTQSPSSLSASVGDRVTITCRASQDVGIYVNWFQQKPGKAPRRLIYRATNLADGVPSRFSGSRSGTDFTLTISSLQPEDFATYYCLEFDEHPLTFGGGTKVEIKDGGGSGGGGSGGGGSSEVQLVESGGGLVQPGGSLRLSCAASGFTFNNYWMTWVRQAPGKGLEWVASIDNSGDNTYYPDSVKDRFTISRDNAKNSLYLQMNSLRAEDTAVYYCARGGDITTGFDYWGQGTLVTVSS
notes: also called M4WT
B2: parental XT-M4 scFv-Fc fusion (Fc fusion)
chain: B1 scFv
notes: Bivalent scFv-Fc made in COS cells; not shown: wild-type human IgG Fc (hinge and constant domains)
B3: 6C2 scFv-Fc fusion (Fc fusion)
chain: B1 scFv with T226K, T227V, G228S, F229L, Y231R
notes: not shown: wild-type human IgG Fc (hinge and constant domains)
B4: S2R3A1_8G9 scFv (scFv)
scFv: B1 scFv with G139S, F229L
B5: 10D8 scFv-Fc fusion (Fc fusion)
chain: B1 scFv with R18K, I31F, G114N, G133E
notes: also called 10D8 (b); not shown: wild-type human IgG Fc (hinge and constant domains)
B6: S2R4A3_10H6 scFv (scFv)
scFv: B1 scFv with R18G, R24Q, D108N, F229L, V240E
notes: also called 10H6 (a)
B7: 6C3 scFv-Fc fusion (Fc fusion)
chain: B1 scFv with T227L, F229L, Y231V
notes: as for B3
B8: S2R3A1_2E6 scFv (scFv)
scFv: B1 scFv with S122N, G132V, T227N, F229L
notes: also called 2E6 (c)
B9: 10G10 scFv-Fc fusion (Fc fusion)
chain: B1 scFv with K103R, T158S, D179E
notes: as for B3
B10: S2R4A3_5A3 scFv (scFv)
scFv: B1 scFv with R18I, G68S, Q205K, A220T, F229L
B11: S2R4A3_10D8 scFv (scFv)
scFv: B1 scFv with R18K, I31F, G114N, G133E
notes: also called 10D8 (b)
B12: 8G9 scFv-Fc fusion (Fc fusion)
chain: B1 scFv with G139S, F229L
notes: as for B3
B13: S2R3A1_5H3 scFv (scFv)
scFv: B1 scFv with Y49D, Q126L
B14: S2R4A4_1G6 scFv (scFv)
scFv: B1 scFv with I31F, T227N
B15: S1R5A1_3B3 scFv (scFv)
scFv: B1 scFv with I31F, F229L
B16: 6G4 scFv-Fc fusion (Fc fusion)
chain: B1 scFv with T226L, T227D, G228S, F229L, D230H, Y231F
notes: Assayed separately; fold gain against the M4 value of the ribosome display set; not shown: wild-type human IgG Fc (hinge and constant domains)
B17: S1R5A1_10G10 scFv (scFv)
scFv: B1 scFv with K103R, T158S, D179E

Tests used:
hRAGE-Fc [1] = molecular target: T1, hRAGE-Fc (human, UniProt Q15109 23-342, biotin label in the selections and HTRF assays); assay: HTRF competition, scFv vs labelled parental XT-M4 (competitor) on hRAGE
T1 construct: extracellular domain; also called biotin labeled hRAGE-Fc; Biotin-labeled RAGE-Fc; not shown: Fc part
T1 sequence (Q15109 23-342): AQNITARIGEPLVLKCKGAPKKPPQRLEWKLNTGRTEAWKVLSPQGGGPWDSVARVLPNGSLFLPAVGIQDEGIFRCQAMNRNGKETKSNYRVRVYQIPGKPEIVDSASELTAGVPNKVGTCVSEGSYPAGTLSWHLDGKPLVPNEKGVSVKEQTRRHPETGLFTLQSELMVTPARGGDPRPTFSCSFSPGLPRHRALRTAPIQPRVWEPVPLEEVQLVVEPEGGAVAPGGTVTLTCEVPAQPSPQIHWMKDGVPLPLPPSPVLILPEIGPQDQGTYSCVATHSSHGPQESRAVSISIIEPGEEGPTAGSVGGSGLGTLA
Experimental: (§1) Increases in binding to RAGE antigen were detected with the aid of a competition assay using parental XT-M4 antibody. Both phage display and ribosome display libraries were selected for affinity improved variants by incubating with biotin labeled hRAGE-Fc, recovering binding clones using streptavidin magnetic beads and washing away non binding variants. Sequential rounds of selection were carried on decreasing antigen concentrations to drive the preferential recovery of higher affinity variants. Clones recovered after selection were subsequently screening for improved binding to hRAGE-Fc using HTRF. This is an assay that measures the decrease in fluorescence upon binding of parental europium cryptate-labeled XT-M4 to RAGE in the presence of competing test scFv antibodies. In these assays, periplasmic preparations of scFv were prepared from bacterial cultures and added in increasing concentrations to a combination of parental antibody and antigen. The ability of the scFV to compete with parental XT-M4 antibody to bind to Biotin-labeled RAGE-Fc was determined. In the presence of avidin-XL665 complex labeled XT-M4 bound to biotinylated RAGE-FC was detected by Fluorescence. Increasing amounts of scFv that competed with the XT-M4 for binding to biotinylated-RAGE-Fc was detected as a decrease in fluorescence. A sequential process of screening was used to focus in on a smaller number of clones with the greatest competition in HTRF assay

hRAGE-Fc [2] = molecular target: T1, hRAGE-Fc; assay: HTRF competition, scFv vs labelled parental XT-M4 (competitor) on biotin hRAGE-Fc
Experimental: as §1

hRAGE-Fc [3] = molecular target: T1, hRAGE-Fc; assay: as above; remark: listed apart in the source
Experimental: as §1

HU-RAGE-SA [4] = molecular target: T2, HU-RAGE-SA (human, UniProt Q15109 23-342); assay: BIAcore, 10 nM scFv-Fc over directly immobilized HU-RAGE-SA, 1:1 fit
T2 construct: extracellular domain; Directly immobilized on a CM5 chip (~100 RU); also called hRAGE-SA; soluble human streptavidin-tagged RAGE; not shown: streptavidin tag (SA)
T2 sequence (Q15109 23-342): as above

[5] = molecular target: T3, human RAGE expressed on CHO cells (human, UniProt Q15109 23-404); assay: cell ELISA on CHO-RAGE cells, A450 corrected for control CHO cells; phage display set
T3 construct: whole, on cells; also called CHO-RAGE cells; cell surface expressed human RAGE
T3 sequence (Q15109 23-404): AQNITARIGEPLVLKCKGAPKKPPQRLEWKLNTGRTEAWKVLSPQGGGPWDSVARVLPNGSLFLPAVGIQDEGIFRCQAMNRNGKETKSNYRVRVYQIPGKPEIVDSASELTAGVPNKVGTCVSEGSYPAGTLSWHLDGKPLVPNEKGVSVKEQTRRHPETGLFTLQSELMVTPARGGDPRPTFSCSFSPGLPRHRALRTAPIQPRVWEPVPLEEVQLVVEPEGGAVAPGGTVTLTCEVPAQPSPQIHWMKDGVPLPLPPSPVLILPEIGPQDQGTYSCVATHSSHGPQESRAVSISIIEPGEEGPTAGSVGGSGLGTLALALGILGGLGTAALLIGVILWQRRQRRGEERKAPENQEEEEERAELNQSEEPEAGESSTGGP
Experimental: (§2) Stably transfected Chinese Hamster Ovary (CHO) cells were engineered to express murine and human RAGE full length proteins. The murine and human RAGE cDNAs were cloned into the mammalian expression vector pSMED, linearized and transfected into CHO cells using lipofectin methods (Kaufman, R. J., 1990, Methods in Enzymology 185:537-66; Kaufman, R. J., 1990, Methods in Enzymology 185:487-511; Pittman, D. D. et al., 1993, Methods in Enzymology 222: 236). Cells were further selected in 20 nM methotrexate and cell extracts were harvested from individual clones and analyzed by SDS sodium dodecyl sulfate-polyacrylamide gel electrophoresis (SDS-PAGE) and Western blotting to confirm expression. […] Absorbance 450 nm values were corrected for the same clones binding to control CHO cells not expressing RAGE. EC50 values were calculated after curve fitting using GraphPad prism and are expressed in μg/ml.

[6] = molecular target: T3, human RAGE expressed on CHO cells; assay: cell ELISA on CHO-RAGE cells, A450 corrected for control CHO cells; ribosome display set
Experimental: as §2

HU-RAGE-SA [7] = molecular target: T2, HU-RAGE-SA; assay: BIAcore kd against parental M4 scFv-Fc
hRAGE-Fc [8] = molecular target: T1, hRAGE-Fc; assay: IC50 of parental M4 scFv-Fc over IC50 of clone, HTRF competition
[9] = molecular target: T3, human RAGE expressed on CHO cells; assay: cell ELISA on CHO-RAGE cells, A450 corrected for control CHO cells
Experimental: as §2

hRAGE-Fc [10] = molecular target: T1, hRAGE-Fc; assay: IC50 of parental M4 scFv over IC50 of clone, HTRF competition
Experimental: as §1

hRAGE-Fc [11] = molecular target: T1, hRAGE-Fc; assay: IC50 of parental M4 scFv-Fc (value of the ribosome display set) over IC50 of clone, HTRF competition

Binder | IC50 (hRAGE-Fc [1]) | IC50 (hRAGE-Fc [3]) | koff (HU-RAGE-SA [4]) | Fold change in kd (HU-RAGE-SA [7]) | EC50 [9] | Fold gain scFv (hRAGE) (hRAGE-Fc [10]) | further results
B1 | 33 nM | 33 nM |  |  |  |  | IC50 (hRAGE-Fc [2]): 33.2 nM
B2 |  |  | 0.0293 s⁻¹ and 0.0291 s⁻¹ |  |  |  | EC50 [5]: 0.408 µg/mL; EC50 [6]: 0.388 µg/mL
B3 |  |  | 0.00153 s⁻¹ | 19.2 fold | 0.0285 µg/mL |  | Fold gain scFv-Fc (hRAGE) (hRAGE-Fc [8]): 9.4 fold
B4 | 2.4 nM | ~2.4 nM |  |  |  | 13.8 fold | 
B5 |  |  | 0.000566 s⁻¹ | 51.8 fold | 0.092 µg/mL |  | Fold gain scFv-Fc (hRAGE) (hRAGE-Fc [8]): 8.8 fold
B6 | 0.3 nM | 0.3 nM |  |  |  | 110 fold | 
B7 |  |  | 0.000488 s⁻¹ | 60 fold | 0.155 µg/mL |  | Fold gain scFv-Fc (hRAGE) (hRAGE-Fc [8]): 38.6 fold
B8 | 1.9 nM | 1.9 nM |  |  |  | 17.3 fold | 
B9 |  |  | 0.105 s⁻¹ | 0.28 fold | 0.133 µg/mL |  | Fold gain scFv-Fc (hRAGE) (hRAGE-Fc [8]): 5 fold
B10 | 3 nM | ~3 nM |  |  |  | 11 fold | 
B11 | 2.6 nM | 2.6 nM |  |  |  | 12.7 fold | 
B12 |  |  | 0.00344 s⁻¹ | 3.9 fold | 0.077 µg/mL |  | Fold gain scFv-Fc (hRAGE) (hRAGE-Fc [8]): 5.1 fold
B13 | 8.2 nM | 8.2 nM |  |  |  | 4 fold | 
B14 | 1.2 nM | 1.2 nM |  |  |  | 21.5 fold | 
B15 | 2.2 nM | 2.2 nM |  |  |  | 15 fold | 
B16 |  |  | 0.00388 s⁻¹ | 7.6 fold | 0.172 µg/mL |  | Fold gain scFv-Fc (hRAGE) (hRAGE-Fc [11]): 11.1 fold
B17 | 16.3 nM | 16.3 nM |  |  |  | 2 fold | 
